What all share (type): cell-based, human
In data set [1] the test system is wild-type and variant SNAP-GIPR. Description: Surface SNAP-GIPR expression (SNAP-tag labelling) in INS-1 cells. The settings on record: Fig 4G; Mean. An outline of the steps: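 Read-out: whole-cell fluorescence of surface-only SNAP label (Alexa Fluor 647, 500 nM, 10 min, RT), wide-field 20X, several FOVs per well. Flat-field corrected, phase-contrast masked, nontransfected-well signal subtracted; normalized to experiment mean or wild-type.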

The test system is the same in data set [2]. The data set is described as follows: Constitutive and agonist-mediated internalization, reversible SNAP-tag labelling, INS-1 cells. Also noted: key to Internalisation, GIP-only / Internalisation, Vehicle / Internalisation, +GIP: % internalization: residual fluorescence after Mesna vs pre-Mesna. The settings on record: Mean; for +GIP internalisation (100 nM) / GIP-specific internalisation (100 nM) / Constitutive internalisation (100 nM): Fig 4G; for +GIP internalisation (100 nM) / GIP-specific internalisation (100 nM): GIP 100 nM; for Internalisation, +GIP / Internalisation, GIP-only / Internalisation, Vehicle: Fig S4C, INS-1. Put shortly: (§1)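 Percentage internalization is read as the fraction of specific SNAP fluorescence that survives Mesna stripping, compared with the image taken before Mesna. Wells are imaged in TNE buffer at pH 8.6 and again after 10 min.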

Data set [3] has the same test system. The data set is described as follows: Single-concentration GIP cAMP response by HTRF in AD293 cells.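 Also: ratio to experiment-wide average response.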 The settings on record: Fig S3F, HTRF, mean. The method, then: (§2) All variants were tested in parallel on each occasion to control for transfection efficiency differences between experiments.
On the technique in general: TR-FRET usually uses a lanthanide donor and a delayed reading to cut background.

Data set [4] has the same test system. Description: Single-concentration GIP cAMP response by HTRF in INS-1 cells. The settings on record: Fig S3E, mean. As for the experimental part:
as §2

Data set [5] shares this test system. Description: Constitutive and agonist-mediated internalization, reversible SNAP-tag labelling, AD293 cells. The settings on record: Mean; for +GIP internalisation (100 nM) / GIP-specific internalisation (100 nM) / Constitutive internalisation (100 nM) / Surface expression: Fig 4E; for +GIP internalisation (100 nM) / GIP-specific internalisation (100 nM): GIP 100 nM; for Internalisation, +GIP / Internalisation, GIP-only / Internalisation, Vehicle: Fig S4C, AD293. Also noted: key to Internalisation, Vehicle / Internalisation, +GIP / Internalisation, GIP-only: % internalization: residual fluorescence after Mesna vs pre-Mesna; Surface expression: unit not given here. Put shortly:
as §1

Data set [6] has the same test system. Description: cADDis cAMP imaging in AD293 cells, ensemble, expression-matched and per decile.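 Also: Ensemble cells as % of IBMX/FSK response.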 The conditions noted are these: Fig S3F, cADDis, mean. An outline of the steps:
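AD293 cells reverse-transfected with wild-type or variant SNAP-GIPR plus cADDis Green Up sensor, variants run in parallel. After 24 h, surface receptor labelled with SNAP-Surface Alexa Fluor 647 (500 nM); single-cell cADDis fluorescence imaged at 37 °C in KRBH, 6 mM glucose, 0.1% BSA. Responses given ensemble, expression-matched by wild-type deciles, or per own decile.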

The results in this text go back to PMC13544220, “Glycemic and bodyweight effects of GIPR coding variation reflect differences in surface expression and intrinsic functional impairment” (Science Advances, 2026).

B1: E354Q (protein)
chain: RAETGSKGQTAGELYQRWERYRRECQETLAAAEPPSGLACNGSFDMYVCWDYAAPNATARASCPWYLPWHHHVAAGFVLRQCGSDGQWGLWRDHTQCENPEKNEAFLDQRLILERLQVMYTVGYSLSLATLLLALLILSLFRRLHCTRNYIHINLFTSFMLRAAAILSRDRLLPRPGPYLGDQALALWNQALAACRTAQIVTQYCVGANYTWLLVEGVYLHSLLVLVGGSEEGHFRYYLLLGWGAPALFVIPWVIVRYLYENTQCWERNEVKAIWWIIRTPILMTILINFLIFIRILGILLSKLRTRQMRCRDYRLRLARSTLTLVPLLGVHQVVFAPVTEEQARGALRFAKLGFEIFLSSFQGFLVSVLYCFINKEVQSEIRRGWHHCRLRRSLGEEQRQLPERAFRALPSGSGPGEVPTSRGLSSGTLPGPGNEASRELESYC
In data set [1], B1 displayed a Surface expression of 0.7154. Besides, in data set [2], the “+GIP internalisation (100 nM)” value amounted to 0.4403; the “GIP-specific internalisation (100 nM)” value amounted to 0.1518; the “Constitutive internalisation (100 nM)” value worked out at 0.2885; the “Internalisation, +GIP” value was determined as 61.4683. Also, in data set [2], the “Internalisation, GIP-only” value is 21.0467 and the “Internalisation, Vehicle” value came out at 40.4217. Also, in data set [3], the “AD293 100 pM HTRF” value worked out at 4.703 and the “AD293 100 nM HTRF” value is reported as 1.4229. Also, the “INS-1 cAMP (100 nM)” value in data set [4] is 1.46. Moreover, in data set [5], the “+GIP internalisation (100 nM)” value is 0.4635, the “GIP-specific internalisation (100 nM)” value is recorded as 0.1217, the “Constitutive internalisation (100 nM)” value worked out at 0.3419 and the Surface expression is 0.6766. In data set [5], the “Internalisation, +GIP” value came out at 68.6221; the “Internalisation, GIP-only” value is 17.9918; the “Internalisation, Vehicle” value is 50.6302. In addition, in data set [6], the “AD293 100 pM cADDis” value was determined as 41.2353 and the “AD293 100 nM cADDis” value is recorded as 37.94.

B2: R190Q (protein)
chain: RAETGSKGQTAGELYQRWERYRRECQETLAAAEPPSGLACNGSFDMYVCWDYAAPNATARASCPWYLPWHHHVAAGFVLRQCGSDGQWGLWRDHTQCENPEKNEAFLDQRLILERLQVMYTVGYSLSLATLLLALLILSLFRRLHCTRNYIHINLFTSFMLRAAAILSQDRLLPRPGPYLGDQALALWNQALAACRTAQIVTQYCVGANYTWLLVEGVYLHSLLVLVGGSEEGHFRYYLLLGWGAPALFVIPWVIVRYLYENTQCWERNEVKAIWWIIRTPILMTILINFLIFIRILGILLSKLRTRQMRCRDYRLRLARSTLTLVPLLGVHEVVFAPVTEEQARGALRFAKLGFEIFLSSFQGFLVSVLYCFINKEVQSEIRRGWHHCRLRRSLGEEQRQLPERAFRALPSGSGPGEVPTSRGLSSGTLPGPGNEASRELESYC
modifications: left off: SNAP-tag, end not stated, kept
Molecule B2 came in with a Surface expression in data set [1] of 0.5789. Also, in data set [2], the “+GIP internalisation (100 nM)” value turned out to be 0.2705; the “GIP-specific internalisation (100 nM)” value came to 0.0143; the “Constitutive internalisation (100 nM)” value amounted to 0.2562; the “Internalisation, +GIP” value is given as 45.6067. Moreover, in data set [2], the “Internalisation, GIP-only” value was determined as 2.692 and the “Internalisation, Vehicle” value came out at 42.915. Besides, in data set [3], the “AD293 100 pM HTRF” value is listed as 0.272 and the “AD293 100 nM HTRF” value is given as 0.2205. Moreover, the “INS-1 cAMP (100 nM)” value in data set [4] was -0.04979. For the same molecule, in data set [5], the “+GIP internalisation (100 nM)” value is reported as 0.1813, the “GIP-specific internalisation (100 nM)” value is -0.007972, the “Constitutive internalisation (100 nM)” value was 0.1892 and the Surface expression worked out at 0.3493. In data set [5], the “Internalisation, +GIP” value is reported as 51.2548; the “Internalisation, GIP-only” value is -3.738; the “Internalisation, Vehicle” value was 54.9926. Further, in data set [6], the “AD293 100 pM cADDis” value is reported as -0.9408 and the “AD293 100 nM cADDis” value is given as 9.541.

B3: R101H (protein)
chain: RAETGSKGQTAGELYQRWERYRRECQETLAAAEPPSGLACNGSFDMYVCWDYAAPNATARASCPWYLPWHHHVAAGFVLHQCGSDGQWGLWRDHTQCENPEKNEAFLDQRLILERLQVMYTVGYSLSLATLLLALLILSLFRRLHCTRNYIHINLFTSFMLRAAAILSRDRLLPRPGPYLGDQALALWNQALAACRTAQIVTQYCVGANYTWLLVEGVYLHSLLVLVGGSEEGHFRYYLLLGWGAPALFVIPWVIVRYLYENTQCWERNEVKAIWWIIRTPILMTILINFLIFIRILGILLSKLRTRQMRCRDYRLRLARSTLTLVPLLGVHEVVFAPVTEEQARGALRFAKLGFEIFLSSFQGFLVSVLYCFINKEVQSEIRRGWHHCRLRRSLGEEQRQLPERAFRALPSGSGPGEVPTSRGLSSGTLPGPGNEASRELESYC
As to B3, the Surface expression in data set [1] is 0.19. In data set [2], the “+GIP internalisation (100 nM)” value is recorded as 0.1025; the “GIP-specific internalisation (100 nM)” value was -0.004871; the “Constitutive internalisation (100 nM)” value is 0.1074; the “Internalisation, +GIP” value was 52.1317. In addition, in data set [2], the “Internalisation, GIP-only” value is on record as -2.542 and the “Internalisation, Vehicle” value turned out to be 54.6733. Also, in data set [3], the “AD293 100 pM HTRF” value is reported as -0.001017 and the “AD293 100 nM HTRF” value is recorded as 0.2474. Besides, the “INS-1 cAMP (100 nM)” value in data set [4] is listed as -0.01312. In data set [5], the “+GIP internalisation (100 nM)” value amounted to 0.1328, the “GIP-specific internalisation (100 nM)” value is reported as 0.01912, the “Constitutive internalisation (100 nM)” value amounted to 0.1137 and the Surface expression is 0.2712. For the same molecule, in data set [5], the “Internalisation, +GIP” value was found to be 49.9522; the “Internalisation, GIP-only” value was determined as 4.89; the “Internalisation, Vehicle” value is given as 45.062. In data set [6], the “AD293 100 pM cADDis” value came to 6.465 and the “AD293 100 nM cADDis” value stood at 17.19.

B4: E288G (protein)
chain: RAETGSKGQTAGELYQRWERYRRECQETLAAAEPPSGLACNGSFDMYVCWDYAAPNATARASCPWYLPWHHHVAAGFVLRQCGSDGQWGLWRDHTQCENPEKNEAFLDQRLILERLQVMYTVGYSLSLATLLLALLILSLFRRLHCTRNYIHINLFTSFMLRAAAILSRDRLLPRPGPYLGDQALALWNQALAACRTAQIVTQYCVGANYTWLLVEGVYLHSLLVLVGGSEEGHFRYYLLLGWGAPALFVIPWVIVRYLYENTQCWGRNEVKAIWWIIRTPILMTILINFLIFIRILGILLSKLRTRQMRCRDYRLRLARSTLTLVPLLGVHEVVFAPVTEEQARGALRFAKLGFEIFLSSFQGFLVSVLYCFINKEVQSEIRRGWHHCRLRRSLGEEQRQLPERAFRALPSGSGPGEVPTSRGLSSGTLPGPGNEASRELESYC
The molecule B4 showed a Surface expression in data set [1] of 0.2232. Moreover, in data set [2], the “+GIP internalisation (100 nM)” value came to 0.1101; the “GIP-specific internalisation (100 nM)” value is reported as 0.004755; the “Constitutive internalisation (100 nM)” value worked out at 0.1053; the “Internalisation, +GIP” value was 49.4833. In addition, in data set [2], the “Internalisation, GIP-only” value amounted to 2.12 and the “Internalisation, Vehicle” value came to 47.3633. Also, in data set [3], the “AD293 100 pM HTRF” value stood at 0.007216 and the “AD293 100 nM HTRF” value was found to be 0.3648. The “INS-1 cAMP (100 nM)” value in data set [4] came out at 0.3027. Also, in data set [5], the “+GIP internalisation (100 nM)” value came out at 0.06598, the “GIP-specific internalisation (100 nM)” value was found to be 0.002144, the “Constitutive internalisation (100 nM)” value turned out to be 0.06383 and the Surface expression worked out at 0.1099. For the same molecule, in data set [5], the “Internalisation, +GIP” value was 59.0204; the “Internalisation, GIP-only” value worked out at 2.581; the “Internalisation, Vehicle” value is recorded as 56.4393. Also, in data set [6], the “AD293 100 pM cADDis” value is recorded as 0.802 and the “AD293 100 nM cADDis” value was determined as 24.23.
